This note sets out measurements from article PMC3824679 (Cell Death & Disease, 2013).

The experiment has as its target T1, GST-RanBP2-M1_(900–1826) (human, UniProt P49792 900-1826).
T1 sequence (looked up): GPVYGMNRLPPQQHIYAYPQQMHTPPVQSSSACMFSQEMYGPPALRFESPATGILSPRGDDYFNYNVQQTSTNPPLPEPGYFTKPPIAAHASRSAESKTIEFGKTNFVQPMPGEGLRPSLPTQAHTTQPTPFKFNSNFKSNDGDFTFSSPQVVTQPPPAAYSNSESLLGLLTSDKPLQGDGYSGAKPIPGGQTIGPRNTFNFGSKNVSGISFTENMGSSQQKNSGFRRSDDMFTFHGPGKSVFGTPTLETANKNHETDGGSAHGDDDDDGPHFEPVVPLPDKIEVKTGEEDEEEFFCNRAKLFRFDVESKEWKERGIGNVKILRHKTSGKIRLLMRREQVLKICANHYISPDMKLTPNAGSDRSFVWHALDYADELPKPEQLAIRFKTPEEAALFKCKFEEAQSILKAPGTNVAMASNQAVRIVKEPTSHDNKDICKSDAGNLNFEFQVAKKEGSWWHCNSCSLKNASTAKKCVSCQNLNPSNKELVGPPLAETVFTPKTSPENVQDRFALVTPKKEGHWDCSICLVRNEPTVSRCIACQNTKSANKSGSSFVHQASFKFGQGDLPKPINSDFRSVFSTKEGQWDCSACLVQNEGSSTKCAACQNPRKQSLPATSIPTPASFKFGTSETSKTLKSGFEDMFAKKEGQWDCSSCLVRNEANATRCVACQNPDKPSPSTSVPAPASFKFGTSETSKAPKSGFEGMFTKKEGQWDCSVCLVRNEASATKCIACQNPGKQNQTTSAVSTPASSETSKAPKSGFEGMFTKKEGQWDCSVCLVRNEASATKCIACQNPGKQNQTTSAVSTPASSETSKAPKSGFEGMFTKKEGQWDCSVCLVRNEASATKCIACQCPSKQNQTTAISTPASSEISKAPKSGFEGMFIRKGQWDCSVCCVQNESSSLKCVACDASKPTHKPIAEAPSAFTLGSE
The experiment is described as follows: pull-down.

B1: His-Imp-β1-N2_(1–650) (domain or fragment, human, UniProt Q14974 1-650, looked up)
chain: MELITILEKTVSPDRLELEAAQKFLERAAVENLPTFLVELSRVLANPGNSQVARVAAGLQIKNSLTSKDPDIKAQYQQRWLAIDANARREVKNYVLQTLGTETYRPSSASQCVAGIACAEIPVNQWPELIPQLVANVTNPNSTEHMKESTLEAIGYICQDIDPEQLQDKSNEILTAIIQGMRKEEPSNNVKLAATNALLNSLEFTKANFDKESERHFIMQVVCEATQCPDTRVRVAALQNLVKIMSLYYQYMETYMGPALFAITIEAMKSDIDEVALQGIEFWSNVCDEEMDLAIEASEAAEQGRPPEHTSKFYAKGALQYLVPILTQTLTKQDENDDDDDWNPCKAAGVCLMLLATCCEDDIVPHVLPFIKEHIKNPDWRYRDAAVMAFGCILEGPEPSQLKPLVIQAMPTLIELMKDPSVVVRDTAAWTVGRICELLPEAAINDVYLAPLLQCLIEGLSAEPRVASNVCWAFSSLAEAAYEAADVADDQEEPATYCLSSSFELIVQKLLETTDRPDGHQNNLRSSAYESLMEIVKNSAKDCYPAVQKTTLVIMERLQQVLQMESHIQSTSDRIQFNDLQSLLCATLQNVLRKVQHQDALQISDVVMASLLRMFQSTAGSGGVQEDALMAVSTLVEVLGGEFLKYMEAF
On to B1, for which the binding result is “binds”.
